# Measurements as given in patent US6395526B1, “DNA polymerase” (Takara Shuzo Co., Ltd., priority 1995, dated 2002).
# T1: second DNA polymerase-constituting protein (translation product of ORF4)
# T1 chain: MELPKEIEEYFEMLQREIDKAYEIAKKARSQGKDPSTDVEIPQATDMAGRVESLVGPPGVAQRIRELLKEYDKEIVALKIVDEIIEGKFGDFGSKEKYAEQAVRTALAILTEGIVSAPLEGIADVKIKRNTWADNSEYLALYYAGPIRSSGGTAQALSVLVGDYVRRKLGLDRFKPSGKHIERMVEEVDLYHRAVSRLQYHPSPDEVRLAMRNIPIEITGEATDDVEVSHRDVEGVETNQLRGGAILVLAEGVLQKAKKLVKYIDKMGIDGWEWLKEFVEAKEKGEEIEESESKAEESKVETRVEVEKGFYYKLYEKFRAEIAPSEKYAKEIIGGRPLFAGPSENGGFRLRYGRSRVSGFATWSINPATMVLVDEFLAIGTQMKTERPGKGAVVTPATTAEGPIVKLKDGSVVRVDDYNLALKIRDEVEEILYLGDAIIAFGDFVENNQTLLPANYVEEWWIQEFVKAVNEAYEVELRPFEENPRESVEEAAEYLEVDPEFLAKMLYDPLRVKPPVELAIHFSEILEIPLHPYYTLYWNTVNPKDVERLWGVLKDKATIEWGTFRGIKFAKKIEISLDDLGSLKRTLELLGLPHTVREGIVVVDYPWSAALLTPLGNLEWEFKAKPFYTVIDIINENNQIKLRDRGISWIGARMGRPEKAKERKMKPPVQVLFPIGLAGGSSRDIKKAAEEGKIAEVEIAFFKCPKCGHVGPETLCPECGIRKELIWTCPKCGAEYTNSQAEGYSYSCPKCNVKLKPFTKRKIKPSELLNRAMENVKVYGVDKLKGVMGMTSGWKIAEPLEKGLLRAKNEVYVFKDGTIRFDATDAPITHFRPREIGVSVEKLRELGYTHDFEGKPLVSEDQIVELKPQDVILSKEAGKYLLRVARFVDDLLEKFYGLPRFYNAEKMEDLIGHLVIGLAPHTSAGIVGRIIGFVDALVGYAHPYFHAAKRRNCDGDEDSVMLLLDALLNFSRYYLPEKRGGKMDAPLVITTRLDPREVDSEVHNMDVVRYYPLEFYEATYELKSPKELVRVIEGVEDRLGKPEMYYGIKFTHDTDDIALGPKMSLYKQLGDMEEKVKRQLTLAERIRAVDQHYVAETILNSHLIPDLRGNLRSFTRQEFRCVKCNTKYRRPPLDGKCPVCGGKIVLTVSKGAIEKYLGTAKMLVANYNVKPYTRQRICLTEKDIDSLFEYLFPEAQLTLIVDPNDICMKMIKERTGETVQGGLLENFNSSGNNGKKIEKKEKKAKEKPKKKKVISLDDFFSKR
# T2: second DNA polymerase-constituting protein (translation product of ORF4) (Pyrococcus furiosus, UniProt P81409 1-1263)
# T2 construct: Subunit of the two-protein DNA polymerase from Pyrococcus furiosus DSM3638; Expressed in E. coli, either together with ORF3 from pFU1001 or alone from pFU-ORF4; About 140,000 Da on SDS-PAGE; also called ORF4 translation product; ORF4-derived translation product
# T2 sequence: T1 chain
# B1: first DNA polymerase-constituting protein (translation product of ORF3) (enzyme)
# chain: MDEFVKSLLKANYLITPSAYYLLREYYEKGEFSIVELVKFARSRESYIITDALATEFLKVKGLEPILPVETKGGFVSTGESQKEQSYEESFGTKEEISQEIKEGESFISTGSEPLEEELNSIGIEEIGANEELVSNGNDNGGEAIVFDKYGYPMVYAPEEIEVEEKEYSKYEDLTIPMNPDFNYVEIKEDYDVVFDVRNVKLKPPKVKNGNGKEGEIIVEAYASLFRSRLKKLRKILRENPELDNVVDIGKLKYVKEDETVTIIGLVNSKREVNKGLIFEIEDLTGKVKVFLPKDSEDYREAFKVLPDAVVAFKGVYSKRGILYANKFYLPDVPLYRRQKPPLEEKVYAILISDIHVGSKEFCENAFIKFLEWLNGNVETKEEEEIVSRVKYLIIAGDVVDGVGVYPGQYADLTIPDIFDQYEALANLLSHVPKHITMFIAPGNHDAARQAIPQPEFYKEYAKPIYKLKNAVIISNPAVIRLHGRDFLIAHGRGIEDVVGSVPGLTHHKPGLPMVELLKMRHVAPMFGGKVPIAPDPEDLLVIEEVPDVVHMGHVHVYDAVVYRGVQLVNSATWQAQTEFQKMVNIVPTPAKVPVVDIDTAKVVKVLDFSGWC
# notes: Subunit of the two-protein DNA polymerase from Pyrococcus furiosus DSM3638; Expressed in E. coli, either together with ORF4 from pFU1001 or alone from pFU-ORF3; About 90,000 Da on SDS-PAGE; also called ORF3 translation product; ORF3-derived translation product
# B2: Pfu DNA Polymerase: α-type DNA polymerase derived from Pyrococcus furiousus, manufactured by Stratagene (protein, UniProt P61875 1-775, looked up)
# DNA polymerase: MILDVDYITEEGKPVIRLFKKENGKFKIEHDRTFRPYIYALLRDDSKIEEVKKITGERHGKIVRIVDVEKVEKKFLGKPITVWKLYLEHPQDVPTIREKVREHPAVVDIFEYDIPFAKRYLIDKGLIPMEGEEELKILAFDIETLYHEGEEFGKGPIIMISYADENEAKVITWKNIDLPYVEVVSSEREMIKRFLRIIREKDPDIIVTYNGDSFDFPYLAKRAEKLGIKLTIGRDGSEPKMQRIGDMTAVEVKGRIHFDLYHVITRTINLPTYTLEAVYEAIFGKPKEKVYADEIAKAWESGENLERVAKYSMEDAKATYELGKEFLPMEIQLSRLVGQPLWDVSRSSTGNLVEWFLLRKAYERNEVAPNKPSEEEYQRRLRESYTGGFVKEPEKGLWENIVYLDFRALYPSIIITHNVSPDTLNLEGCKNYDIAPQVGHKFCKDIPGFIPSLLGHLLEERQKIKTKMKETQDPIEKILLDYRQKAIKLLANSFYGYYGYAKARWYCKECAESVTAWGRKYIELVWKELEEKFGFKVLYIDTDGLYATIPGGESEEIKKKALEFVKYINSKLPGLLELEYEGFYKRGFFVTKKRYAVIDEEGKVITRGLEIVRRDWSEIAKETQARVLETILKHGDVEEAVRIVKEVIQKLANYEIPPEKLAIYEQITRPLHEYKAIGPHVAVAKKLAAKGVKIKPGMVIGYIVLRGDGPISNRAILAEEYDPKKHKYDAEYYIENQVLPAVLRILEGFGYRKEDLRYQKTRQVGLTSWLNIKKS
# Experiments:
# [1] = molecular target: T1, second DNA polymerase-constituting …
# [2] = molecular target: T2, second DNA polymerase-constituting …; assay: gel filtration (Superose 6) of the co-expressed, purified polymerase; activity peaks at about 385 kDa and about 220 kDa
# Experimental: Ten milliliters of an enzyme solution obtained by collecting as an active fraction was desalted and concentrated by ultrafiltration, and dissolved in buffer A+150 mM NaCl to yield 3.5 ml of an enzyme solution. The resulting enzyme solution was then applied to a Hi Trap Heparin column (manufactured by Pharmacia), previously equilibrated with the same buffer. A chromatogram was developed on a linear concentration gradient from 150 to 650 mM NaCl using an FPLC system, to yield an active fraction eluted at 400 mM NaCl. Five milliliters of this fraction was concentrated to 120 µl of a solution including 50 mM potassium phosphate, pH 6.5, 2 mM 2-mercaptoethanol, and 75 mM NaCl by repeating desalting and concentration using ultrafiltration. The resulting concentrated solution was then applied to a gel filtration column of Superose 6 (manufactured by Pharmacia), previously equilibrated with the same buffer, and eluted with the same buffer. As a result, a fraction having a DNA polymerase activity was eluted at positions corresponding to retention times of 34.7 minutes and 38.3 minutes. […] These molecular weights corresponded to a complex formed by the translation product of ORF3 and the translation product of ORF4 in a molar ratio of 1:2 and another complex formed by the above translation products in a molar ratio of 1:1, respectively. […]
# [3] = system: substrate DNA (template-primer); assay: DNA polymerase activity on different forms of substrate DNA (template-primer); type: biochemical
# Experimental: The DNA polymerase activity was assayed using calf thymus DNA (manufactured by Worthington) activated by DNase I treatment (activated DNA) as a substrate. DNA activation and assay of DNA polymerase activity were carried out by the method described in DNA Polymerase from Escherichia coli, 263-276 (authored by C. C. Richardson), published by Harper & Row, edited by D. R. Davis.
# An assay of enzyme activity was carried out by the following method. Specifically, 50 μl of a reaction solution [20 mM Tris-HCl (pH 7.7), 15 mM MgCl2, 2 mM 2-mercaptoethanol, 0.2 mg/ml activated DNA, 40 μM each of dATP, dCTP, dGTP and dTTP, 60 nM [^3H]-dTTP (manufactured by Amersham)], containing a sample for assaying its activity, was prepared and reacted at 75° C. for 15 minutes. A 40 μl portion of this reaction mixture was then spotted onto a DE paper (manufactured by Whatman) and washed with 5% Na2HPO4 five times. The remaining radioactivity on the DE paper was assayed using a liquid scintillation counter. The amount of enzyme which incorporated 10 nmol of [^3H]-dTMP per 30 minutes into the substrate DNA, assayed by the above-described enzyme activity assay method, was defined as one unit of the enzyme.
# Next, in order to compare the selectivity of the DNA polymerase of the present invention for different forms of substrate DNA, the following template-primer was examined. Aside from the activated DNA used for conventional assay of the activity, those prepared as substrates include a thermal-denatured DNA prepared by treating the activated DNA at 85° C. for 5 minutes; M13-HT Primer prepared by annealing a 45-base synthetic deoxyribooligonucleotide of the sequence as shown by SEQ ID NO:6 in Sequence Listing as a primer to the M13 phage single stranded DNA (M13mp18 ssDNA, manufactured by Takara Shuzo Co., Ltd.); M13-RNA Primer prepared by annealing a 17-base synthetic ribooligonucleotide of the sequence as shown by SEQ ID NO:7 in Sequence Listing as a primer to the same M13 phage single stranded DNA; Poly dA-Oligo dT prepared by mixing polydeoxyadenosine (Poly dA, manufactured by Pharmacia) and oligodeoxythymidine (Oligo dT, manufactured by Pharmacia) in a 20:1 molar ratio; and Poly A-Oligo dT prepared by mixing polyadenosine (Poly A, manufactured by Pharmacia) and oligodeoxythymidine in a 20:1 molar ratio.
# The DNA polymerase activity was assayed using these substrates in place of the activated DNA. The relative activity of each substrate when the activity obtained in the case of using an activated DNA as a substrate is defined as 100 is shown in Table 1. For comparison, the Pfu DNA polymerase and the Taq DNA polymerase derived from Thermus aquaticus (TaKaRa Taq, manufactured by Takara Shuzo Co., Ltd.) were also examined in the same manner.
# M13-HT Primer = assay: Primer extension reaction (autoradiogram, FIG. 6); type: biochemical; details: activated DNA added in great excess
# Experimental: The primer extension activity was further investigated extensively. The M13-HT Primer, previously labeled with [γ-^32P]-ATP (manufactured by Amersham) and T4 polynucleotide kinase (manufactured by Takara Shuzo Co., Ltd.) at the 5′-end, was used as a substrate. Ten microliters of a reaction mixture [20 mM Tris-HCl (pH 7.7), 15 mM MgCl2, 2 mM 2-mercaptoethanol, 270 μM each of dATP, dGTP, dCTP and dTTP] containing the above substrate in a final concentration of […] and various DNA polymerases in amounts providing 0.05 units of activity as assayed with the activated DNA as a substrate was reacted at 75° C. for 1, 2, 3, or 4 minutes. After termination of the reaction, 2 μl of a reaction stop solution (95% […], 20 mM EDTA, 0.05% bromophenol blue, 0.05% xylenecyanol) was added, subjected to thermal denaturation treatment at 95° C. for 3 minutes. Two microliters of the reaction mixture was then subjected to electrophoresis using polyacrylamide gel containing 8 M urea and subsequently subjected to a preparation of autoradiogram. Also, in order to examine the extension activity in the presence of the activated DNA as a competitor substrate, the activated DNA was added to the above reaction mixture to a final concentration of […], and subjected to a preparation of an autoradiogram by the same procedures as described above.
# In the figure, Pol, Pfu, and Taq show the results for the DNA polymerase of the present invention, the Pfu DNA polymerase and the Taq DNA polymerase, respectively. In addition, 1, 2, 3, and 4 each indicates reaction time (min). In the figure, the representation “−” and “+” show the results obtained in the absence and in the presence, respectively, of the activated DNA. The lanes G, A, T, and C at the left end of the figure also show the results of electrophoresis of the reaction products obtained by a chain termination reaction by the dideoxy method using the same substrate as above, which were used to estimate the length of each extension product.
# λ-DNA = details: reported, enzyme used alone; cited from earlier work
Molecule,thermostable DNA polymerase activity [1],binding result [2],"Relative Activity ([3]; substrate M13-HT primer, activated DNA = 100)","Relative Activity ([3]; substrate M13-RNA primer, activated DNA = 100)",Relative Activity ([3]; substrate activated DNA (defined as 100)),"Relative Activity ([3]; substrate poly dA-Oligo dT, activated DNA = 100)","Relative Activity ([3]; substrate thermal-denatured DNA, activated DNA = 100)",inhibition of primer extension by activated DNA as competitor substrate (M13-HT Primer),strand length of DNA amplifiable by PCR (λ-DNA)
B1,"although neither of the ORF translation products thus purified exhibited the DNA polymerase activity when assayed alone, thermostable DNA polymerase activity was exhibited when they were mixed together",binds,–,–,–,–,–,–,–
B2,–,–,23,0.49,100,390,87,strongly inhibited,at most 3 kbp
